B1: dBr_Jan07_10250 (dsDNA)
DNA 1: CCGCTCCACGAGCCACGACCGAATACCGTACACGTGGTCTGTGTTCCGTTGTCCGTGCTG
DNA 2: CAGCACGGACAACGGAACACAGACCACGTGTACGGTATTCGGTCGTGGCTCGTGGAGCGG
B2: dBr_Jan07_40185 (dsDNA)
DNA 1: AGAATCAAGGTGAGCGAGCAAGGCTTAAAATCCCGCGTCTGTGTTCCGTTGTCCGTGCTG
DNA 2: CAGCACGGACAACGGAACACAGACGCGGGATTTTAAGCCTTGCTCGCTCACCTTGATTCT
B3: dBr_Jan07_30748 (dsDNA)
DNA 1: CCGCAAGGAGCGCACTAGCATCTCCTCTCTTGGGCCGTCTGTGTTCCGTTGTCCGTGCTG
DNA 2: CAGCACGGACAACGGAACACAGACGGCCCAAGAGAGGAGATGCTAGTGCGCTCCTTGCGG
B4: dBr_Jan07_20880 (dsDNA)
DNA 1: GTCGGTTAACCTACTGTAACGTCGCTTTCGGTGTGTGTCTGTGTTCCGTTGTCCGTGCTG
DNA 2: CAGCACGGACAACGGAACACAGACACACACCGAAAGCGACGTTACAGTAGGTTAACCGAC
B5: dBr_Jan07_04404 (dsDNA)
DNA 1: ATCCTCTTGAAACACTACAAGTTTCGTTAAAAAAAGGTCTGTGTTCCGTTGTCCGTGCTG
DNA 2: CAGCACGGACAACGGAACACAGACCTTTTTTTAACGAAACTTGTAGTGTTTCAAGAGGAT
B6: dBr_Jan07_08887 (dsDNA)
DNA 1: ATAGCCGCGTGGCATATGGTCCGGCGACCCCCTCTCGTCTGTGTTCCGTTGTCCGTGCTG
DNA 2: CAGCACGGACAACGGAACACAGACGAGAGGGGGTCGCCGGACCATATGCCACGCGGCTAT
B7: dBr_Jan07_28323 (dsDNA)
DNA 1: GGCTCAAGACAGATTGCAGCTTTGACAACCGAATTCGTCTGTGTTCCGTTGTCCGTGCTG
DNA 2: CAGCACGGACAACGGAACACAGACGAATTCGGTTGTCAAAGCTGCAATCTGTCTTGAGCC
B8: dBr_Jan07_08177 (dsDNA)
DNA 1: GGAGGTCTAACTGGGAACGGCAATGCGCCCATATTTGTCTGTGTTCCGTTGTCCGTGCTG
DNA 2: CAGCACGGACAACGGAACACAGACAAATATGGGCGCATTGCCGTTCCCAGTTAGACCTCC
B9: dBr_Jan07_06649 (dsDNA)
DNA 1: TAAAGGTCACCAATAGTCATTGCAGACTGGGACAATGTCTGTGTTCCGTTGTCCGTGCTG
DNA 2: CAGCACGGACAACGGAACACAGACATTGTCCCAGTCTGCAATGACTATTGGTGACCTTTA
B10: dBr_Jan07_17054 (dsDNA)
DNA 1: GTTCTCCCTTGATTCAAGTATAACAAGATACCCATCGTCTGTGTTCCGTTGTCCGTGCTG
DNA 2: CAGCACGGACAACGGAACACAGACGATGGGTATCTTGTTATACTTGAATCAAGGGAGAAC
B11: dBr_Jan07_06986 (dsDNA)
DNA 1: CAATAGACGTTGCAATTTGGCCTGACAGCTACGGAAGTCTGTGTTCCGTTGTCCGTGCTG
DNA 2: CAGCACGGACAACGGAACACAGACTTCCGTAGCTGTCAGGCCAAATTGCAACGTCTATTG
B12: dBr_Jan07_28572 (dsDNA)
DNA 1: CGCTTTGCTCAGACGTCTGACTCGGACTATGAGAGGGTCTGTGTTCCGTTGTCCGTGCTG
DNA 2: CAGCACGGACAACGGAACACAGACCCTCTCATAGTCCGAGTCAGACGTCTGAGCAAAGCG
B13: dBr_Jan07_34487 (dsDNA)
DNA 1: AACAGCCCACCCCTTATCAACGCGGCGCTTTCAGGCGTCTGTGTTCCGTTGTCCGTGCTG
DNA 2: CAGCACGGACAACGGAACACAGACGCCTGAAAGCGCCGCGTTGATAAGGGGTGGGCTGTT
B14: dBr_Jan07_11873 (dsDNA)
DNA 1: CCAGAGTTCGTAGGCAAAAACCCGCGACGGTATGCCGTCTGTGTTCCGTTGTCCGTGCTG
DNA 2: CAGCACGGACAACGGAACACAGACGGCATACCGTCGCGGGTTTTTGCCTACGAACTCTGG
B15: dBr_Jan07_19753 (dsDNA)
DNA 1: ACACGTGTATGTAACATGCGAGCACTTCGTGCGCCTGTCTGTGTTCCGTTGTCCGTGCTG
DNA 2: CAGCACGGACAACGGAACACAGACAGGCGCACGAAGTGCTCGCATGTTACATACACGTGT
B16: dBr_Jan07_23467 (dsDNA)
DNA 1: ATTGGGGATGACAAGAGCTCTTCACAAAGAGGCCTTGTCTGTGTTCCGTTGTCCGTGCTG
DNA 2: CAGCACGGACAACGGAACACAGACAAGGCCTCTTTGTGAAGAGCTCTTGTCATCCCCAAT
B17: dBr_Jan07_34312 (dsDNA)
DNA 1: TTCAGACTGGCGCATGGTGCCCTCTGAACCCTGAATGTCTGTGTTCCGTTGTCCGTGCTG
DNA 2: CAGCACGGACAACGGAACACAGACATTCAGGGTTCAGAGGGCACCATGCGCCAGTCTGAA
B18: dBr_Jan07_39257 (dsDNA)
DNA 1: CAAACAGGCCGGTCTCTCGGTACAGTCACGTGTTCAGTCTGTGTTCCGTTGTCCGTGCTG
DNA 2: CAGCACGGACAACGGAACACAGACTGAACACGTGACTGTACCGAGAGACCGGCCTGTTTG
B19: dBr_Jan07_40846 (dsDNA)
DNA 1: CCAGATCAACGCTTGCTAAATAAACGCAGCAAACTGGTCTGTGTTCCGTTGTCCGTGCTG
DNA 2: CAGCACGGACAACGGAACACAGACCAGTTTGCTGCGTTTATTTAGCAAGCGTTGATCTGG
B20: dBr_Jan07_41703 (dsDNA)
DNA 1: CATTCATGTTGAGATAACACGTGGTTGGGCGTTAATGTCTGTGTTCCGTTGTCCGTGCTG
DNA 2: CAGCACGGACAACGGAACACAGACATTAACGCCCAACCACGTGTTATCTCAACATGAATG
B21: dBr_Jan07_04854 (dsDNA)
DNA 1: CTGGGTTGGCCCTGCATTGGATACCTTTGAGCTCTCGTCTGTGTTCCGTTGTCCGTGCTG
DNA 2: CAGCACGGACAACGGAACACAGACGAGAGCTCAAAGGTATCCAATGCAGGGCCAACCCAG
B22: dBr_Jan07_19002 (dsDNA)
DNA 1: CTATGCCGGGATAGTTCACCATACGGTCACAGCTTTGTCTGTGTTCCGTTGTCCGTGCTG
DNA 2: CAGCACGGACAACGGAACACAGACAAAGCTGTGACCGTATGGTGAACTATCCCGGCATAG
B23: dBr_Jan07_30747 (dsDNA)
DNA 1: GGTACTACGATATAGGGATTACGCACCGCAAGGAGCGTCTGTGTTCCGTTGTCCGTGCTG
DNA 2: CAGCACGGACAACGGAACACAGACGCTCCTTGCGGTGCGTAATCCCTATATCGTAGTACC
B24: dBr_Jan07_41473 (dsDNA)
DNA 1: TACTCGAAGCGTAAAAAAGACCGGGTAGGAAGCCAAGTCTGTGTTCCGTTGTCCGTGCTG
DNA 2: CAGCACGGACAACGGAACACAGACTTGGCTTCCTACCCGGTCTTTTTTACGCTTCGAGTA
B25: dBr_Jan07_03085 (dsDNA)
DNA 1: TGTACGGGAGACCTTGCGGCGCCTACGAGCAACAACGTCTGTGTTCCGTTGTCCGTGCTG
DNA 2: CAGCACGGACAACGGAACACAGACGTTGTTGCTCGTAGGCGCCGCAAGGTCTCCCGTACA
B26: dBr_Jan07_21945 (dsDNA)
DNA 1: GCAGGGGTGTAGGACAACTCGGCGTCAGTGGGTAGTGTCTGTGTTCCGTTGTCCGTGCTG
DNA 2: CAGCACGGACAACGGAACACAGACACTACCCACTGACGCCGAGTTGTCCTACACCCCTGC
B27: dBr_Jan07_22655 (dsDNA)
DNA 1: GCCCACCCACCGAAATCGTCAATAGGCCTCACAGAAGTCTGTGTTCCGTTGTCCGTGCTG
DNA 2: CAGCACGGACAACGGAACACAGACTTCTGTGAGGCCTATTGACGATTTCGGTGGGTGGGC
B28: dBr_Jan07_16045 (dsDNA)
DNA 1: TACATATTGCCCTTTGGGTGAGTCACTCATTTTGGGGTCTGTGTTCCGTTGTCCGTGCTG
DNA 2: CAGCACGGACAACGGAACACAGACCCCAAAATGAGTGACTCACCCAAAGGGCAATATGTA
B29: dBr_Jan07_22296 (dsDNA)
DNA 1: TGAAGTGATTGTATGACCTTCTCCACTCTGCCGCCAGTCTGTGTTCCGTTGTCCGTGCTG
DNA 2: CAGCACGGACAACGGAACACAGACTGGCGGCAGAGTGGAGAAGGTCATACAATCACTTCA
B30: dBr_Jan07_13143 (dsDNA)
DNA 1: AGCTGTTGGTGCATCCTATGTCGAAGACTGGCGGCGGTCTGTGTTCCGTTGTCCGTGCTG
DNA 2: CAGCACGGACAACGGAACACAGACCGCCGCCAGTCTTCGACATAGGATGCACCAACAGCT
B31: dBr_Jan07_16988 (dsDNA)
DNA 1: CCACCTAGGGGATACTCGCAAGGTCGGGAAACCACCGTCTGTGTTCCGTTGTCCGTGCTG
DNA 2: CAGCACGGACAACGGAACACAGACGGTGGTTTCCCGACCTTGCGAGTATCCCCTAGGTGG
B32: dBr_Jan07_08379 (dsDNA)
DNA 1: CGCGGAAGCCTCTACGCTTGATTGTATCCAACACCCGTCTGTGTTCCGTTGTCCGTGCTG
DNA 2: CAGCACGGACAACGGAACACAGACGGGTGTTGGATACAATCAAGCGTAGAGGCTTCCGCG

Among the data in paper PMC12636033, “Chemical Engineering of Transcription Factors Uncovered Cell-Permeable μMax Modulators” are binding signal values, retold here.

Sequence of WT Max (P61244 other isoform, or with tags, fused parts or gaps M65Nle): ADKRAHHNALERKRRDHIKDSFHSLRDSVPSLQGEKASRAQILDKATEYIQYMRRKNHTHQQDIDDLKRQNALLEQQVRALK

The series has as its target WT Max (Homo sapiens, UniProt P61244-2 13-93, M65Nle, norleucine written as M; other non-natural residues written as X). As to the kind of experiment: PBM; 50-200 nM protein; PBS, 2% milk, BSA, salmon testes DNA, 0.02% Triton X-100. The following applies: chain copies: 2; label: surface-attached array probe.
For B1, the binding signal was 4.92 robust z of log adjusted intensity (ours), mean of two arrays.
In the case of B2, the binding signal is -0.61 robust z of log adjusted intensity (ours), mean of two arrays.
Take B3: the binding signal was -0.64 robust z of log adjusted intensity (ours), mean of two arrays.
Consider B4, for which the binding signal was -0.14 robust z of log adjusted intensity (ours), mean of two arrays.
With B5, the binding signal was -0.11 robust z of log adjusted intensity (ours), mean of two arrays.
As for B6, the binding signal was 7 robust z of log adjusted intensity (ours), mean of two arrays.
Take B7: the binding signal is -0.41 robust z of log adjusted intensity (ours), mean of two arrays.
For the molecule B8, the binding signal is -0.41 robust z of log adjusted intensity (ours), mean of two arrays.
Turning to B9, the binding signal is -0.27 robust z of log adjusted intensity (ours), mean of two arrays.
In the case of B10 it was -0.28 robust z of log adjusted intensity (ours), mean of two arrays.
In the case of B11, the binding signal was -0.17 robust z of log adjusted intensity (ours), mean of two arrays.
Take B12: the binding signal is -0.41 robust z of log adjusted intensity (ours), mean of two arrays.
As for B13, the binding signal was -0.28 robust z of log adjusted intensity (ours), mean of two arrays.
For the molecule B14, the binding signal is -0.41 robust z of log adjusted intensity (ours), mean of two arrays.
The same measure for B15: 3.43 robust z of log adjusted intensity (ours), mean of two arrays; for B16: -0.43 robust z of log adjusted intensity (ours), mean of two arrays; for B17: -0.02 robust z of log adjusted intensity (ours), mean of two arrays.
On to B18, for which the binding signal was 4.93 robust z of log adjusted intensity (ours), mean of two arrays.
Regarding B19, the binding signal is -0.51 robust z of log adjusted intensity (ours), mean of two arrays.
On to B20, for which the binding signal was 5.69 robust z of log adjusted intensity (ours), mean of two arrays.
On to B21, for which the binding signal is -0.33 robust z of log adjusted intensity (ours), mean of two arrays.
On to B22, for which the binding signal is -0.39 robust z of log adjusted intensity (ours), mean of two arrays.
In the case of B23 it was -0.4 robust z of log adjusted intensity (ours), mean of two arrays; in that of B24, -0.29 robust z of log adjusted intensity (ours), mean of two arrays; in that of B25, -0.59 robust z of log adjusted intensity (ours), mean of two arrays.
The same measure for B26: -0.45 robust z of log adjusted intensity (ours), mean of two arrays; for B27: -0.54 robust z of log adjusted intensity (ours), mean of two arrays; for B28: -0.17 robust z of log adjusted intensity (ours), mean of two arrays.
Turning to B29, the binding signal is -0.32 robust z of log adjusted intensity (ours), mean of two arrays.
Regarding B30, the binding signal is -0.67 robust z of log adjusted intensity (ours), mean of two arrays.
With B31, the binding signal was -0.45 robust z of log adjusted intensity (ours), mean of two arrays.
As for B32, the binding signal was -0.26 robust z of log adjusted intensity (ours), mean of two arrays.
